Experimental data from publication PMC2890523, “Identification of archaeal proteins that affect the exosome function in vitro”.

Columns and labels:
[1] = target: PaRrp4-exosome (Pyrococcus abyssi) (UniProt Q9V120)
[2] = target: PaCsl4-exosome (Pyrococcus abyssi)
[3] = target: PaRrp4-exosome (Pyrococcus abyssi) (UniProt Q9V120); remark: listed apart in the source
[4] = target: RNase PH ring (PaRrp41-PaRrp42 complex) (Pyrococcus abyssi)
[5] = target: PaCsl4-exosome (Pyrococcus abyssi); remark: listed apart in the source
[6] = target: T1, PaSBDS (Pyrococcus abyssi, UniProt Q9V121 1-236); assay: EMSA; 200 pmol; smear, low stability complex; 1 pmol RNA in 20 ul; 20 mM Tris-HCl pH 8.0, 20 mM KCl, 2 mM MgCl2, 1 mM DTT, 100 ug/ml BSA, 0.8 U RNasin (or conditions of earlier work, ref 21), 37 C, 30 min; settings: protein: recombinant; tags: pET-28a vector, Ni-NTA purified (His tag); label: 5'-32P; single strand
[7] = target: T2, PaRrp41;PaRrp42 (Pyrococcus abyssi;Pyrococcus abyssi, UniProt Q9V119;Q9V118 1-249;1-274, |); assay: EMSA; no phosphate added; PaRrp4-exosome binds 3-fold more efficiently; some RNA degradation; 1 pmol RNA in 20 ul; 20 mM Tris-HCl pH 8.0, 20 mM KCl, 2 mM MgCl2, 1 mM DTT, 100 ug/ml BSA, 0.8 U RNasin (or conditions of earlier work, ref 21), 37 C, 30 min; settings: protein: recombinant;recombinant; tags: pET29a vector;pAE vector; chain copies: 3;3; label: 5'-32P; single strand
T2 sequence 1: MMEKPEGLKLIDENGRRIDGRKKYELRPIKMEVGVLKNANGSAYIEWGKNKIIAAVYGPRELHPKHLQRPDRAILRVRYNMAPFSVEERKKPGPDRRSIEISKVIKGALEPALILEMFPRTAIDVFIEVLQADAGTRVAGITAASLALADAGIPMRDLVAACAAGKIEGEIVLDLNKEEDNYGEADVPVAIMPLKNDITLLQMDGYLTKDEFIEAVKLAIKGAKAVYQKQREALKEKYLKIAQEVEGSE
T2 sequence 2: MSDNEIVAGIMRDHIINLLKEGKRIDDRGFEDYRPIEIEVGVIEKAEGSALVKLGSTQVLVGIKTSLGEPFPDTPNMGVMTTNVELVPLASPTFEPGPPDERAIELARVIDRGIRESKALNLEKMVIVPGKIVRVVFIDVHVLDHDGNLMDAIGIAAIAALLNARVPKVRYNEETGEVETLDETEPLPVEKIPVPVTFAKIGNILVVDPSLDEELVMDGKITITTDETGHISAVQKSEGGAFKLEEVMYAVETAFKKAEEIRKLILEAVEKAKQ

[8] = target: T3, PaRrp41;PaRrp42;PaRrp4 (Pyrococcus abyssi;Pyrococcus …, UniProt Q9V119;Q9V118;Q9V120 1-249;1-274;1-265, ||); assay: EMSA; no phosphate added; 9-fold vs PaCsl4-exosome; 1 pmol RNA in 20 ul; 20 mM Tris-HCl pH 8.0, 20 mM KCl, 2 mM MgCl2, 1 mM DTT, 100 ug/ml BSA, 0.8 U RNasin (or conditions of earlier work, ref 21), 37 C, 30 min; settings: protein: recombinant;recombinant;recombinant; tags: pET29a vector;pAE vector;; chain copies: 3;3;3; label: 5'-32P; single strand
T3 sequence 1: T2 sequence 1
T3 sequence 2: T2 sequence 2
T3 sequence 3: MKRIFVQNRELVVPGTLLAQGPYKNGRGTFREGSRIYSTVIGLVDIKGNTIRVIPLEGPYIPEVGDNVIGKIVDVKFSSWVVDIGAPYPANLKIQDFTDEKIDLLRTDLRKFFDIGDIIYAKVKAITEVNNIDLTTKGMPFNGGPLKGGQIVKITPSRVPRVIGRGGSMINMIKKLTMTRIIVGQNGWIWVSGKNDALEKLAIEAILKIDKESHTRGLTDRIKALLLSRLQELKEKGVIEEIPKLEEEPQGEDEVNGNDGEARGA

[9] = target: T4, PaRrp41;PaRrp42;PaCsl4 (Pyrococcus abyssi;Pyrococcus …, UniProt Q9V119;Q9V118;Q9V2M2 1-249;1-274;1-199, ||); assay: EMSA; no phosphate added; 1 pmol RNA in 20 ul; 20 mM Tris-HCl pH 8.0, 20 mM KCl, 2 mM MgCl2, 1 mM DTT, 100 ug/ml BSA, 0.8 U RNasin (or conditions of earlier work, ref 21), 37 C, 30 min; settings: protein: recombinant;recombinant;recombinant; tags: pET29a vector;pAE vector;pET28a vector; chain copies: 3;3;3; label: 5'-32P; single strand
T4 sequence 1: T2 sequence 1
T4 sequence 2: T2 sequence 2
T4 sequence 3: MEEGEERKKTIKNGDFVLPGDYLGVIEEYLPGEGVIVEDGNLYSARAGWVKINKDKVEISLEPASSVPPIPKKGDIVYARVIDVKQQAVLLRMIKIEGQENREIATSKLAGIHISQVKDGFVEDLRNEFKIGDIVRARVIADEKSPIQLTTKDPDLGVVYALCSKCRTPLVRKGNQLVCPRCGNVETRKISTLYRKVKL

[10] = target: T4, PaRrp41;PaRrp42;PaCsl4; assay: EMSA; 10 mM NaH2PO4, 65 C, 15 min; 1 pmol RNA in 20 ul; 20 mM Tris-HCl pH 8.0, 20 mM KCl, 2 mM MgCl2, 1 mM DTT, 100 ug/ml BSA, 0.8 U RNasin (or conditions of earlier work, ref 21), 37 C, 30 min; settings: protein: recombinant;recombinant;recombinant; tags: pET29a vector;pAE vector;pET28a vector; chain copies: 3;3;3; label: 5'-32P; can form intra- and inter-strand base pairs of low stability
[11] = target: T3, PaRrp41;PaRrp42;PaRrp4; assay: as above; settings: protein: recombinant;recombinant;recombinant; tags: pET29a vector;pAE vector;; chain copies: 3;3;3; label: 5'-32P; can form intra- and inter-strand base pairs of low stability
[12] = target: T1, PaSBDS; assay: EMSA; 50-400 pmol; 1 pmol RNA in 20 ul; 20 mM Tris-HCl pH 8.0, 20 mM KCl, 2 mM MgCl2, 1 mM DTT, 100 ug/ml BSA, 0.8 U RNasin (or conditions of earlier work, ref 21), 37 C, 30 min; settings: protein: recombinant, tags: pET-28a vector, Ni-NTA purified (His tag), label: 5'-32P
[13] = target: T2, PaRrp41;PaRrp42; assay: EMSA; 10 mM NaH2PO4, 65 C, 15 min; less efficient than holo-exosomes; 1 pmol RNA in 20 ul; 20 mM Tris-HCl pH 8.0, 20 mM KCl, 2 mM MgCl2, 1 mM DTT, 100 ug/ml BSA, 0.8 U RNasin (or conditions of earlier work, ref 21), 37 C, 30 min; settings: protein: recombinant;recombinant; tags: pET29a vector;pAE vector; chain copies: 3;3; label: 5'-32P; can form intra- and inter-strand base pairs of low stability

## PaNip7 (natural protein)
[1]
  inhibition of the RNase activity on 14-mer poly-rA (1, 5 or 10 pmol complex, 65°C, 10 mM NaH2PO4) by 100 pmol PaNip7: 3.8 fold
[2]
  inhibition of the RNase activity on 14-mer poly-rA (1, 5 or 10 pmol complex, 65°C, 10 mM NaH2PO4) by 100 pmol PaNip7: 6.1 fold
[3]
  decrease in poly-rA binding by the exosome complex (EMSA, 1-20 pmol complex) in the presence of 100 pmol PaNip7: 40 fold
[4]
  decrease in poly-rA binding by the exosome complex (EMSA, 1-20 pmol complex) in the presence of 100 pmol PaNip7: 3 fold
[5]
  decrease in poly-rA binding by the exosome complex (EMSA, 1-20 pmol complex) in the presence of 100 pmol PaNip7: 20 fold

B1: poly-rA 14-mer (ssRNA)
RNA: AAAAAAAAAAAAAA
[6]
  binding result: binds
[7]
  binding result: binds
[8]
  binding signal: 3 fold vs RNase PH ring
[9]
  binding signal: 9 fold less efficient than PaRrp4-exosome

B2: poly-rAU 21-mer (ssRNA)
RNA: UUAUUAUUUAUUUAUUAUUUA
[10]
  binding result: binds
[11]
  binding result: binds
[12]; can form intra- and inter-strand base pairs of low stability
  binding result: binds
[13]
  binding result: binds

B3: poly-rC 13-mer (ssRNA)
RNA: CCCCCCCCCCCCC
[12]; single strand
  binding result: no binding
